# According to patent CN113087789A:
# B1: 丝状噬菌体pVIII蛋白单克隆抗体P8E4 (antibody, V domains shown)
# VH: QIQLQQSGAELARPGASVRLSCKRSGYTFTTYWLQWLKQRAGQGLEWIGAIYPGNGDTRYFPNFKGQATLTADRSSSTRYLQLSSLASESSAVYYCASLLRTDFAMDYRGQGTSVTVSS
# VL: DIVLTQSPASEAVSLGQRATISCRTSESVDTYAISFIHWYQQKPGWPPKLLIYRASNAESGIPARFAGSGSRPDFTLSIRPVEADDVATYYCQQSDKDPGSFGGGTKLEIK
# Tests used:
# [1] = molecular target: M13KO7辅助噬菌体 (丝状噬菌体pVIII蛋白) (M13KO7 helper phage (filamentous phage)) (UniProt P69541); assay: indirect ELISA, plate coated with 1.0×10^9 pfu/mL M13KO7 helper phage, ascites antibody
# [2] = molecular target: M13KO7辅助噬菌体 (丝状噬菌体pVIII蛋白) (M13KO7 helper phage (filamentous phage)) (UniProt P69541); assay: indirect ELISA, plate coated with 1.0×10^9 pfu/mL M13KO7 helper phage, purified antibody (1.0 mg/mL stock)
# Sequence of UniProt P69541 (P69541 24-73): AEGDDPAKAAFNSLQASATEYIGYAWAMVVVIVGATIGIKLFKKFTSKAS
binder,measurement,setting,value
B1,"效价 (titer, ascites) (fold dilution)",[1],102000
same,"效价 (titer, purified antibody 1.0 mg/mL) (fold dilution)",[2],6400
